Target: T1, CD44 (isoform 4), Fc-fused (Homo sapiens, UniProt P16070-4, strain)
T1 construct: printed MW 94.4 kDa; Fc-fused, dimeric presentation; For selections, ELISA and HTRF it was chemically biotinylated by amine coupling; also called CD44iso4; CD44iso4-Fc fusion construct; source: bought: Promab Biotechnologies, produced in HEK293 cells; not shown: Fc (IgG1), C-terminal, kept
Experiment: SPR; single cycle kinetics; purified IgG4 captured by an immobilised anti-Fab antibody on a CM5 chip; CD44iso4 (Fc-fused, dimeric) injected in five concentrations between 80 and 0.3 nM; HBS with 0.05% Tween20, pH 7.5; 1:1 model; apparent (possible avidity from the dimeric target)
Conditions: both partners purified

binding result: binds
B1: BIWA4 (bivatuzumab), as human IgG4 (antibody, V domains shown)
VH: EVQLVESGGGLVKPGGSLRLSCAASGFTFSSYDMSWVRQAPGKGLEWVSTISSGGSYTYYLDSIKGRFTISRDNAKNSLYLQMNSLRAEDTAVYYCARQGLDYWGRGTLVTVSS
VL: EIVLTQSPATLSLSPGERATLSCSASSSINYIYWYQQKPGQAPRLLIYLTSNLASGVPARFSGSGSGTDFTLTISSLEPEDFAVYYCLQWSSNPLTFGGGTKVEIK
notes: VH of BIWA4; human IgG4 heavy chain constant region from the in-house vector pHAT-hIgG4, with the hinge-stabilising S228P substitution; numbers count on: EU numbering; VL of BIWA4; light chain constant region of the vector pHAT-hIgG4; also called positive control; source: expiHEK293 cells, transfected, purified (Protein A beads)

Source: paper PMC10673843, “Selection, characterization and in vivo evaluation of novel CD44v6-targeting antibodies for targeted molecular radiotherapy” (Scientific Reports, 2023)
